From patent publication US20240148901A1

Molecular target: Recombinant gp120JR-FL (MyBioSource) (HIV)
Assay: modified gp120 ELISA: gp120JR-FL coated plate, NanoLuc luminescence read-out

“secreted PGT121-NanoLuc, purified (antibody)” showed a sensitivity of the gp120 ELISA of 500 pg/mL.
